Series [1] deals with the molecule itself. Description: cryo-EM structure.
Series [2] has as its target human mitochondrial Hsp70 (mortalin) R126W mutant (human, UniProt P38646 47-679, R126W). As to the kind of experiment: cryo-EM structure.

Substitutions are numbered along the chain they refer to. In names and notes the source's numbering stands.

A word on the stoichiometry N: it is the number of molecules, sites or subunits per partner or assembly.

Sequence of human mitochondrial Hsp70 (mortalin) R126W mutant (P38646 47-679 R126W): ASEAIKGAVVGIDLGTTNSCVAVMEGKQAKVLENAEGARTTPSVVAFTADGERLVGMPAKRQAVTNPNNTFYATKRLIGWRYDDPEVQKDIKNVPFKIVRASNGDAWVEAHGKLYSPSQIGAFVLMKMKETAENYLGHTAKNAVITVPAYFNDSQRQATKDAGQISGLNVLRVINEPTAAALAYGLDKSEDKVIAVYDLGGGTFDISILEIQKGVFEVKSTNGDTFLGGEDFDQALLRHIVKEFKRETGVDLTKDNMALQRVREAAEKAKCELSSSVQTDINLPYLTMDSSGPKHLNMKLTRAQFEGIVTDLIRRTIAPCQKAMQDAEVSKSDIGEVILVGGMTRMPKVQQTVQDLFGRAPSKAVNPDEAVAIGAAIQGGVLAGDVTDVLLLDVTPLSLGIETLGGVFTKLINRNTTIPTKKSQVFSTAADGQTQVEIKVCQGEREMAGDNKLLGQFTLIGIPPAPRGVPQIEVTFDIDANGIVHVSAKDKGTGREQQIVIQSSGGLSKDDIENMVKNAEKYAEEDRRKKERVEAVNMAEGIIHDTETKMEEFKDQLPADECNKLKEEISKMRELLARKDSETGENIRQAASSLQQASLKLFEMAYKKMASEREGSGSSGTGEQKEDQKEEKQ

B1: human GrpEL1 (wild type) (natural protein)
chain: CTATKQKNSGQNLEEDMGQSEQKADPPATEKTLLEEKVKLEEQLKETVEKYKRALADTENLRQRSQKLVEEAKLYGIQAFCKDLLEVADVLEKATQCVPKEEIKDDNPHLKNLYEGLVMTEVQIQKVFTKHGLLKLNPVGAKFDPYEHEALFHTPVEGKEPGTVALVSKVGYKLHGRTLRPALVGVVKEA
For B1, in series [1], the “stoichiometry N” value turned out to be 2.

B2: human GrpEL1 Y173A mutant (natural protein)
chain: B1 chain with Y146A
For B2, the binding result in series [2] was “binds”.

These data come from PMC11118385 (bioRxiv, 2024).
